Changes are numbered by the printed parent chain.
B1: MBP-Sec31(879–1114) (domain or fragment, S. cerevisiae, UniProt P38968 879-1114, looked up)
chain: APIQPGMPIMGDYNAQSSSIPSQPPINAVSGQTPHLNRKANDGWNDLPLKVKEKPSRAKAVSVAPPNILSTPTPLNGIPANAASTMPPPPLSRAPSSVSMVSPPPLHKNSRVPSLVATSESPRASISNPYAPPQSSQQFPIGTISTANQTSNTAQVASSNPYAPPPQQRVATPLSGGVPPAPLPKASNPYAPTATTQPNGSSYPPTGPYTNNHTMTSPPPVFNKPPTGPPPISMKK
notes: also called proline-rich region of Sec31p; pMY12; source: E. coli C41(DE3), purified (amylose resin, eluted with 30 mM maltose)
B2: Sec13/31p complex (complex, S. cerevisiae)
chain 1: MVVIANAHNELIHDAVLDYYGKRLATCSSDKTIKIFEVEGETHKLIDTLTGHEGPVWRVDWAHPKFGTILASCSYDGKVLIWKEENGRWSQIAVHAVHSASVNSVQWAPHEYGPLLLVASSDGKVSVVEFKENGTTSPIIIDAHAIGVNSASWAPATIEEDGEHNGTKESRKFVTGGADNLVKIWKYNSDAQTYVLESTLEGHSDWVRDVAWSPTVLLRSYLASVSQDRTCIIWTQDNEQGPWKKTLLKEEKFPDVLWRASWSLSGNVLALSGGDNKVTLWKENLEGKWEPAGEVHQ
chain 2: MVKLAEFSRTATFAWSHDKIPLLVSGTVSGTVDANFSTDSSLELWSLLAADSEKPIASLQVDSKFNDLDWSHNNKIIAGALDNGSLELYSTNEANNAINSMARFSNHSSSVKTVKFNAKQDNVLASGGNNGEIFIWDMNKCTESPSNYTPLTPGQSMSSVDEVISLAWNQSLAHVFASAGSSNFASIWDLKAKKEVIHLSYTSPNSGIKQQLSVVEWHPKNSTRVATATGSDNDPSILIWDLRNANTPLQTLNQGHQKGILSLDWCHQDEHLLLSSGRDNTVLLWNPESAEQLSQFPARGNWCFKTKFAPEAPDLFACASFDNKIEVQTLQNLTNTLDEQETETKQQESETDFWNNVSREESKEKPTVFHLQAPTWYGEPSPAAHWAFGGKLVQITPDGKGVSITNPKISGLESNTTLSEALKTKDFKPLINQRLVKVIDDVNEEDWNLLEKLSMDGTEEFLKEALAFDNDESDAQDDANNEKEDDGEEFFQQIETNFQPEGDFSLSGNIEQTISKNLVSGNIKSAVKNSLENDLLMEAMVIALDSNNERLKESVKNAYFAKYGSKSSLSRILYSISKREVDDLVENLDVSQWKFISKAIQNLYPNDIAQRNEMLIKLGDRLKENGHRQDSLTLYLAAGSLDKVASIWLSEFPDLEDKLKKDNKTIYEAHSECLTEFIERFTVFSNFINGSSTINNEQLIAKFLEFINLTTSTGNFELATEFLNSLPSDNEEVKTEKARVLIASGKSLPAQNPATATTSKAKYTNAKTNKNVPVLPTPGMPSTTSIPSMQAPFYGMTPGASANALPPKPYVPATTTSAPVHTEGKYAPPSQPSMASPFVNKTNSSTRLNSFAPPPNPYATATVPATNVSTTSIPQNTFAPIQPGMPIMGDYNAQSSSIPSQPPINAVSGQTPHLNRKANDGWNDLPLKVKEKPSRAKAVSVAPPNILSTPTPLNGIPANAASTMPPPPLSRAPSSVSMVSPPPLHKNSRVPSLVATSESPRASISNPYAPPQSSQQFPIGTISTANQTSNTAQVASSNPYAPPPQQRVATPLSGGVPPAPLPKASNPYAPTATTQPNGSSYPPTGPYTNNHTMTSPPPVFNKPPTGPPPISMKKRSNKLASIEQNPSQGATYPPTLSSSASPLQPSQPPTLASQVNTSAENVSHEIPADQQPIVDFLKEELARVTPLTPKEYSKQLKDCDKRLKILFYHLEKQDLLTQPTIDCLHDLVALMKEKKYKEAMVIHANIATNHAQEGGNWLTGVKRLIGIAEATLN
notes: Sec13p, COPII outer coat subunit, S. cerevisiae; Sec31p, COPII outer coat subunit, S. cerevisiae; also called outer COPII coat; source: purified
B3: GST-Pef1p (natural protein, S. cerevisiae, UniProt P53238 1-335, looked up)
chain: MCAKKLKYAAGDDFVRYATPKEAMEETRREFEKEKQRQQQIKVTQAQTPNTRVHSAPIPLQTQYNKNRAENGHHSYGSPQSYSPRHTKTPVDPRYNVIAQKPAGRPIPPAPTHYNNLNTSAQRIASSPPPLIHNQAVPAQLLKKVAPASFDSREDVRDMQVATQLFHNHDVKGKNRLTAEELQNLLQNDDNSHFCISSVDALINLFGASRFGTVNQAEFIALYKRVKSWRKVYVDNDINGSLTISVSEFHNSLQELGYLIPFEVSEKTFDQYAEFINRNGTGKELKFDKFVEALVWLMRLTKLFRKFDTNQEGIATIQYKDFIDATLYLGRFLPH
notes: No removal of GST is described; also called N-terminally GST-fused Pef1p; pMY3; source: E. coli JM109, purified (glutathione-Sepharose, eluted with 10 mM glutathione); not shown: GST, N-terminal, kept
B4: GST-Pef1p-E180/181/248A (natural protein, S. cerevisiae, UniProt P53238 1-335, looked up)
chain: B3 chain with E180A, E181A, E248A
notes: also called pMY14; source: E. coli JM109, purified (glutathione-Sepharose, eluted with 10 mM glutathione); not shown: GST, N-terminal, kept

Legend:
Details in all cases: both partners purified
[1] = molecular target: B3; assay: pull-down; GST-Pef1p or GST (40 nM) and MBP-Sec31p fragment (80 nM), glutathione-Sepharose beads, 4°C 2 h, 20 mM HEPES-KOH pH 8.0, 160 mM potassium acetate, 0.1% Triton X-100; CaCl2 or EGTA not told for this experiment; immunoblot with anti-MBP
[2] = molecular target: T1, Sec23/24p complex (S. cerevisiae, UniProt P15303 1-768; P40482 1-926); assay: light scattering of liposomes; liposomes (100 µg/mL) preloaded with Sar1p (950 nM) and GMP-PNP (0.1 mM); Sec23/24p (160 nM), then Sec13/31p (260 nM) added; 350 nm, 25°C, 20 mM HEPES-KOH pH 6.8, 160 mM potassium acetate, 1 mM MgCl2; 5 mM EGTA in panel A, none in panel B; with or without GST-Pef1p or its mutant (520 nM)
T1 construct: Sec23p, COPII inner coat subunit, GAP for Sar1p, S. cerevisiae; Sec24p, COPII inner coat subunit, S. cerevisiae; also called inner COPII coat

[3] = molecular target: B2; assay: pull-down; GST fusion or GST (40 nM) and Sec13/31p (80 nM) with 5 mM EGTA, glutathione-Sepharose beads, 4°C 2 h, 20 mM HEPES-KOH pH 8.0, 160 mM potassium acetate, 0.1% Triton X-100; immunoblot with anti-Sec31p

T1 sequence (P15303 whole entry, chain 1 of 2): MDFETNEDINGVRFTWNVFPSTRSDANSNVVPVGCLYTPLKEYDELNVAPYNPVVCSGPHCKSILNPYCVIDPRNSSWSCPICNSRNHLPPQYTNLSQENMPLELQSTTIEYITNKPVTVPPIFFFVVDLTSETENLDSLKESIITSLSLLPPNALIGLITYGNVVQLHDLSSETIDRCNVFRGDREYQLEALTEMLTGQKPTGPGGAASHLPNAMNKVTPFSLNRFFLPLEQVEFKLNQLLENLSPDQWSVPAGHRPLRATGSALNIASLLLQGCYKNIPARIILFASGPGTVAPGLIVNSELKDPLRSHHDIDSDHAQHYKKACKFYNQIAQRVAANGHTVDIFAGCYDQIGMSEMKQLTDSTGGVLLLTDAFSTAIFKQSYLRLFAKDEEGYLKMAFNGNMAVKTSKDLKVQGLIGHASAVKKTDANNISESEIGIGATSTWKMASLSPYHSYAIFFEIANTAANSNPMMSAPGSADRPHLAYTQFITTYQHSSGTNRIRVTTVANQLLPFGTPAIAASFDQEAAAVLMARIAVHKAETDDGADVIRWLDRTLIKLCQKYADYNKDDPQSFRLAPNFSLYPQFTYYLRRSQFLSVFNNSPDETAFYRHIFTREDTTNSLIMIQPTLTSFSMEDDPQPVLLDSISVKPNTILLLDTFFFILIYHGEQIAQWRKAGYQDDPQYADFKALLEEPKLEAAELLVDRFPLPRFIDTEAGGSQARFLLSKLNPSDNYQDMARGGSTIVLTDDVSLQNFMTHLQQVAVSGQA
T1 sequence (P40482 whole entry, chain 2 of 2): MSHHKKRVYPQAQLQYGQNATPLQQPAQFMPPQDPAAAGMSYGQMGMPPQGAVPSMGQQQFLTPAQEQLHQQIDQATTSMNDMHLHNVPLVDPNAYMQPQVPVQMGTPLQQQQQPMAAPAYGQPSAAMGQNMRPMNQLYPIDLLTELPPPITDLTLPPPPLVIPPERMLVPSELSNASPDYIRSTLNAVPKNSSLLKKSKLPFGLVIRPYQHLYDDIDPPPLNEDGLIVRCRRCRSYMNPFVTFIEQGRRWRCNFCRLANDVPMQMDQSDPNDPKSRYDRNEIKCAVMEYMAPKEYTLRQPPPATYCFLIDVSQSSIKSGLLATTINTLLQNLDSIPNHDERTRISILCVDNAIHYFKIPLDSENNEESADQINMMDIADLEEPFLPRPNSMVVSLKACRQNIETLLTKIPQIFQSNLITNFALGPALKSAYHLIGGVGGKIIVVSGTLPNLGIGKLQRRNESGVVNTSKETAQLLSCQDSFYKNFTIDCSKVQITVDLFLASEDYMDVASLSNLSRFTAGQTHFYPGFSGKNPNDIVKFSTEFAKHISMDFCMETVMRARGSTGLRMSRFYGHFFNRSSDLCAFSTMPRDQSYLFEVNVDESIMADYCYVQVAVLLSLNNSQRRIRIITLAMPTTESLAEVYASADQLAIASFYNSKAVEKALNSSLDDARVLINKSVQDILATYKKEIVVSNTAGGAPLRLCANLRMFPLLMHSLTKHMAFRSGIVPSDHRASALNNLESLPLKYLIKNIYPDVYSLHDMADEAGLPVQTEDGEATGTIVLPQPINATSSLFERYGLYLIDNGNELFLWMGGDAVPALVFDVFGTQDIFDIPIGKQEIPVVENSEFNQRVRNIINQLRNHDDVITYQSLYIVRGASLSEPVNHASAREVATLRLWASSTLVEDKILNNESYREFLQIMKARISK

| binding result [3] | Binder | also measured |
| --- | --- | --- |
| – | B1 | binding result [1]: binds |
| – | B2 | binding result [2]: binds |
| binds | B3 | – |
| binds | B4 | – |

— article PMC3394733, “Involvement of the Penta-EF-Hand Protein Pef1p in the Ca^2+-Dependent Regulation of COPII Subunit Assembly in Saccharomyces cerevisiae” (PLoS ONE, 2012)
